Data set [1] has as its target SBT189-Dabcyl conjugate (Bacillus amyloliquefaciens (Bacillus velezensis)) (UniProt P00782). Description: single turn-over kinetics, quenching of GFP fluorescence by Dabcyl; 0.1M KPO4, pH 7.2, 5 mM azide, 22° C.
In data set [2] the test system is GA-PFRAL-S-GB.
For data set [3], the target named is SBT189. The conditions noted are these: read-out: apparent KD for azide; anion binding to the enzyme-substrate complex. The text has this: The acylation reaction: Step 2 describes conversion of the ternary complex into an acyl-enzyme with the concomitant release to the C-terminal portion of the substrate. With substrates used in phage display, the GB domain is released concomitantly with the acylation step. If a fluorescent reporter group is attached to subtilisin, a decrease in energy transfer enables time-dependent quantitation of acylation.

The target in data set [4] is GB-GFP fusion protein with cognate variation LFQSL-SA, P06654.
Data set [5] addresses GB-GFP fusion protein with cognate variation LLRAL-SA, P06654.
The target of data set [6] is GB-GFP fusion protein with cognate variation LFRAL-MA, P06654.
For data set [7], the target named is GB-GFP fusion protein with cognate variation LFRAM-SA, P06654.
The target in data set [8] is GB-GFP fusion protein with cognate variation LYRAL-SA, P06654.
Data set [9] concerns the target GB-GFP fusion protein with cognate variation VFKAM-SG, P06654.
Data set [10] concerns the target GB-GFP fusion protein with cognate variation LFRAY-SA, P06654.
Another data set deals with T1, prodomain variant pS156.
T1 chain: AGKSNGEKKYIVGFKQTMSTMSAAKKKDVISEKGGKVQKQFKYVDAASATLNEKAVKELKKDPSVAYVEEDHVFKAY

The target of the next data set is T2, prodomain variant pS170.
T2 chain: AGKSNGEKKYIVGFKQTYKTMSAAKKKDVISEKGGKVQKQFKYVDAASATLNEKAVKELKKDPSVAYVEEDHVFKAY

In data set [11] the target is GA-PFRAL-S-GB. The source holds these as a separate data set.
Data set [12] concerns the target T3, subtilisin variant SBT189 (Bacillus amyloliquefaciens (Bacillus …, UniProt P00782 108-382)).
T3 construct: Engineered subtilisin BPN' variant with D32A; also called S189; RSUB1
T3 chain: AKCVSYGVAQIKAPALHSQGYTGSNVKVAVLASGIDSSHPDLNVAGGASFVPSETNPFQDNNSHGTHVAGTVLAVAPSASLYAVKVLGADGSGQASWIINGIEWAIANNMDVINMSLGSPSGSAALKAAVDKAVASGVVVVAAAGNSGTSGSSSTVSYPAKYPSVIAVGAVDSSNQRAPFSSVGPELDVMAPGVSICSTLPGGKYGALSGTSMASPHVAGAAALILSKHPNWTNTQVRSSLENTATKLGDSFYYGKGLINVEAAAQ
The experiment in a line: transient state kinetics with the FRET peptide.

For data set [13], the target named is T3, subtilisin variant SBT189. Description: complex formed at 100 µM for the activation cascade. As for the experimental part: (§1) To do this complexes of SBT189 were formed with two different prodomain inhibitors. The first complex contained 100 μM of SBT189 and prodomain variant pS156, and the second complex contained 100 μM SBT189 and prodomain variant pS170. To start the activation cascade, 10 nM wild type subtilisin was added to each complex. Wild type subtilisin is able to cleave both the loop sequence MSTM (SEQ ID NO:23) in pS156 and the loop sequence YKTM (SEQ ID NO:22) in pS170. After 5 minutes of digestion, the wild type subtilisin was inactivated by the addition of EDTA to 1 mM and heating to 55° C. for 10 minutes. Azide was then added to the reactions to 10 mM and the activity of free SBT189 subtilisin was then measured as a function of time. The release of free SBT189 from the pS156 complex occurs at a rate of about 1 days⁻¹. This is because the cleavage of the loop sequence MSTM (SEQ ID NO:23) by SBT189 is very slow. In contrast, the complete activation of SBT189 from the pS170 complex occurs within 10 minutes. Because SBT189 can readily cleave the loop sequence YKTL (SEQ ID NO:24), SBT189 is rapidly released after the self-activating chain reaction is initiated by wild type subtilisin. Thus the protease signal from the pS170 complex increases about 10⁴-fold in 10 minutes (from 10 nM to 100 μM).

Data set [14] has as its system SBT189. Description: Activation cascade: release of free SBT189 from prodomain inhibitor complexes. Type of data set: biochemical, Bacillus amyloliquefaciens. The method, then:
as §1, with “days^−1.” for “days⁻¹.”, “10^4-fold” for “10⁴-fold”

The mark [15] stands for this setting: 100 μM complex, started with 10 nM wild type subtilisin, 10 mM azide.

Primed or numbered codes have the meaning given here. No end group written: not given here. *: point of attachment. Dabcyl′ = CN(C)c1ccc(/N=N/c2ccc(C(=O)*)cc2)cc1 Where only a bound is given, the exact number is not on record here.

In the case of “GB-GFP fusion protein with cognate variation LFRAL-MA (from UniProt P06654 228-282)”, in data set [1], the KS is 24 µM.

As for “GB-GFP fusion protein with cognate variation LLRAL-SA (from UniProt P06654 228-282)”, the KS in data set [1] stood at 670 µM.

As for “subtilisin synthesized as a fusion protein on the surface of M13 phage”, the “enrichment of phagemid relative to helper phage after one round of catch and release selection” value in the data set with GA-PFRAL-S-GB [2] turned out to be 350 fold enrichment.

Consider “GB-GFP fusion protein with cognate variation VFKAM-SG (from UniProt P06654 228-282)”, for which, in data set [1], the KS came out at 43 µM.

In data set [1], “GB-GFP fusion protein with cognate variation LFRAY-SA (from UniProt P06654 228-282)” gave a KS of 1900 µM.

As for `[N-]=[N+]=[N-]` [azide], the Kd at SBT189 [3] is 50 mM.

Turning to “GB-GFP fusion protein with cognate variation LFQSL-SA (from UniProt P06654 228-282)”, the KS in [1] came out at 66 µM.

In turn, “GB-GFP fusion protein with cognate variation LYRAL-SA (from UniProt P06654 228-282)” returned a KS in data set [1] of 88 µM.

In data set [1], “GB-GFP fusion protein with cognate variation LFRAM-SA (from UniProt P06654 228-282)” showed a KS of 36 µM.

In turn, “GB-LFRAL-SA-GFP (from UniProt P06654 228-282)” returned a KS in [1] of 16 µM.

B1: SBT189-Dabcyl conjugate (protein)
chain: AKCVSYGVAQIKAPALHSQGYTGSNVKVAVLASGIDSSHPDLNVAGGASFVPSETNPFQDNNSHGTHVAGTVLAVAPSASLYAVKVLGADGSGQASWIINGIEWAIANNMDVINMSLGSPSGSAALKAAVDKAVASGVVVVAAAGNSGTSGSSSTVSYPAKYPSVIAVGAVDSSNQRAPFSSVGPELDVMAPGVSICSTLPGGKYGALSGTSMASPHVAGAAALILSKHPNWTNTQVRSSLENTATKLGDSFYYGKGLINVEAAAQ
Consider B1, for which the Relative k2/KS in the data set with GB-LFRAL-SA-GFP, P06654 was 1; in data set [4] it was 0.04; in data set [5], 0.01; in [6] it was 0.027; in [7], 0.32; in data set [8], 0.03. For the same molecule, the figures for the Relative k2/KS in data set [9] and in [10] were 0.004 and 0.001, respectively. Besides, the “activity against the cognate sequence, relative to VFKAM-SG” value in the data set with GB-LFRAL-SA-GFP, P06654 is recorded as 250-times greater. The acylation rate (k2) with GB-LFRAL-SA-GFP, P06654 came to 1.4 s⁻¹; in [4], 0.23 s⁻¹; in [5], 0.59 s⁻¹; in [6], 0.06 s⁻¹; in data set [7], 1 s⁻¹; in data set [8], 0.23 s⁻¹. The figures for the acylation rate (k2) in data set [9] and in [10] were 0.017 s⁻¹ and 0.17 s⁻¹, respectively.

B2: subtilisin variant SBT189 (protein)
chain: AKCVSYGVAQIKAPALHSQGYTGSNVKVAVLASGIDSSHPDLNVAGGASFVPSETNPFQDNNSHGTHVAGTVLAVAPSASLYAVKVLGADGSGQASWIINGIEWAIANNMDVINMSLGSPSGSAALKAAVDKAVASGVVVVAAAGNSGTSGSSSTVSYPAKYPSVIAVGAVDSSNQRAPFSSVGPELDVMAPGVSICSTLPGGKYGALSGTSMASPHVAGAAALILSKHPNWTNTQVRSSLENTATKLGDSFYYGKGLINVEAAAQ
B2: in the data set with GB-LFRAL-SA-GFP, P06654, the “digestion of the fusion protein, protein gel and MALDI-MS” value is “The fusion protein was correctly and specifically processed to release GB-LFRAL and SA-GFP”. Further, in the data set with prodomain variant pS156, the “release of free SBT189 from the complex” value is given as “about 1 days^-1”. For the same molecule, in the data set with prodomain variant pS170, the “complete activation of SBT189 from the complex” value is on record as “occurs within 10 minutes” and the “increase of the protease signal from the complex” value is given as “increases about 10^4-fold in 10 minutes (from 10 nM to 100 µM)”. For the same molecule, the “cleavage rate in the absence of azide” value in the data set with GA-PFRAL-S-GB [11] was determined as 0.12 min⁻¹.

B3: RSUB1(AF350) (protein)
chain: AKCVSYGVAQIKAPALHSQGYTGSNVKVAVLASGIDSSHPDLNVAGGASFVPSETNPFQDNNSHGTHVAGTVLAVAPSASLYAVKVLGADGSGQASWIINGIEWAIANNMDVINMSLGSPSGSAALKAAVDKAVASGVVVVAAAGNSGTSGSSSTVSYPAKYPSVIAVGAVDSSNQRAPFSSVGPELDVMAPGVSICSTLPGGKYGALSGTSMASPHVAGAAALILSKHPNWTNTQVRSSLENTATKLGDSFYYGKGLINVEAAAQ
For B3, in the data set with GA-PFRAL-S-GB [11], the “rate of GB release in saturating azide” value was determined as 6.4 s⁻¹ and the “rate of GB release with no azide present” value was determined as 0.0019 s⁻¹.

B4: wild type subtilisin (protein)
chain: AQSVPYGVSQIKAPALHSQGYTGSNVKVAVIDSGIDSSHPDLKVAGGASMVPSETNPFQDNNSHGTHVAGTVAALNNSIGVLGVAPSASLYAVKVLGADGSGQYSWIINGIEWAIANNMDVINMSLGGPSGSAALKAAVDKAVASGVVVVAAAGNEGTSGSSSTVGYPGKYPSVIAVGAVDSSNQRASFSSVGPELDVMAPGVSIQSTLPGNKYGAYNGTSMASPHVAGAAALILSKHPNWTNTQVRSSLENTTTKLGDSFYYGKGLINVQAAAQ
With B4, the “cleavage of the prodomain loop” value with prodomain variant pS156 and in the data set with prodomain variant pS170 was “able to cleave” in each case.

B5: Dabcyl-EEDKLFRAL (peptide)
peptide: {Dabcyl′}-EEDKLFRAL
notes: Acyl-side cleavage product of the FRET peptide; also called product
As a reminder, the koff is a measure of how fast the partners let go of each other. Higher therefore signals fast dissociation. With B5, the off-rate (koff) in [12] was determined as 6 s⁻¹.

B6: prodomain variant pS170 (other)
chain: AGKSNGEKKYIVGFKQTYKTMSAAKKKDVISEKGGKVQKQFKYVDAASATLNEKAVKELKKDPSVAYVEEDHVFKAY
notes: M18Y, S19K, A74F, H75K against the prodomain; also called p5170
Turning to B6, the binding result in [13] is recorded as “binds”. Also, in the data set with SBT189 [14] (setting [15]), the “time to complete activation of SBT189 from the complex” value is at most 10 min. Also, the “increase of protease signal” value in the data set with SBT189 [14] (in 10 minutes (from 10 nM to 100 μM)) is “about 10^4 fold”.

B7: pS156 (protein)
chain: AGKSNGEKKYIVGFKQTMSTMSAAKKKDVISEKGGKVQKQFKYVDAASATLNEKAVKELKKDPSVAYVEEDHVFKAY
B7: the “rate of release of free SBT189 from the complex” value with SBT189 [14] (setting [15]) is “about 1 days^−1”.
